Laboratory results reported in US5525708, “Covalent dimer of kit ligand” (CytoMed, Inc., dated 1996).

Key:
[1] = target: c-kit proto-oncogene (receptor of KL) on human cells (human, UniProt P10721); assay: cell-based or functional assay
[2] = target: c-kit proto-oncogene (receptor of KL) on murine cells (murine, UniProt P05532); assay: cell-based or functional assay

B1: murine covalent dimer kit ligand (KL-CD), biologically active form (ligand)
chain: MMKKTQTWIITCIYLQLLLFNPLVKTKEICGNPVTDNVKDITKLVANLPNDYMITLNYVAGMDVLPSHCWLRDMVIQLSLSLTTLLDKFSNISEGLSNYSIIDKLGKIVDDLVLCMEENAPKNIKESPKRPETRSFTPEEFFSIFNRSIDAFKDFMVASDTSDCV
modifications: at least one intermolecular disulfide bond between one of the four cysteines (4, 43, 89, 138) of one monomer and one of the four cysteines of the other monomer; which cysteines is not determined
[1]
  proliferation of human cell lines (M07e), 3H-thymidine incorporation: 10 fold
[2]
  proliferation of murine mast cells (BMMC), 3H-thymidine incorporation: 10 fold
